We go through one substance from publication PMC11090158.

This assay has as its target GST-tag DNA polymerase (pol) β, wild-type (human) (UniProt P06746). Nature of the assay: SPR.

Usually Kd stands for the free concentration of one partner at which half of the binding sites on the other are occupied at equilibrium, for simple one-to-one binding. High values mean weaker binding, low ones tighter binding. As to “X-ray cross-complementing protein 1 (XRCC1) V86R, 6x-his tag (from UniProt P18887 1-633) (natural protein)”, the Kd came to 2.7 µM.
